Source: US5536822A, “γ-phosphate linked adenosine 5' triphosphate sepharose” (University of Virginia Alumni Patents Foundation, priority 1994, dated 1996)

Legend:
[1] = test system: Nc1ncnc2c1ncn2[C@@H]1O[C@H](COP(=O)(O)OP(=O)(O)OP(=O)(O)O)[C@@H](O)[C@H]1O; assay: purified protein, by the assay type; settings: other: cyclic A kinase; pH 7.4
Excerpt: However, since the Km for ATP varied for each protein kinase tested, for comparative purposes it was convenient to determine the Ki /Km quotient (Table 1).

[2] = test system: T1, Nc1ncnc2c1ncn2[C@@H]1O[C@H](COP(=O)(O)OP(=O)(O)OP(=O)(O)O)[C@@H](O)[C@H]1O; assay: Inhibition constant of the ATP derivative / Km for ATP, p60^c-src assay (peptide substrate); format: biochemical; settings: other: p60^c-src; pH 7.4
T1 construct: Department of Microbiology, University of Virginia (obtained from; not a purchase)
Excerpt: [γ-^32 P] ATP was synthesized according to the procedure set forth in Johnson et al., Advances in Cyclic Nucleotide Research, 10:135-167 (1979). The catalytic subunit of cyclic-AMP-dependent protein kinase was purchased from Promega. p60^c-arc was obtained from the Department of Microbiology, University of Virginia. Recombinant p42^mapk was purified as described in Haystead et al., (1992) FEBS Lett., 306:17-22. STE7 antibody was obtained from the University of Vancouver, Canada.
The 42-kDa MAP kinase (p42^mapk) and MAPKK were assayed as described previously (Haystead et al. (1992) FEBS. Lett., 306:17-22). The cyclic-A kinase assays (30 μl) included 1 μg cyclic-A kinase, 2 mM Kemptide, 50 mM Hepes, pH 7.4, 1 mM dithiothreitol, 200 μM ATP, 5 mM MgCl2. […]
In order to assess the effectiveness of adenosine 5'-(γ-4-aminophenyl)triphosphate as an affinity ligand for protein kinases, the inhibition constants (Ki) of the derivative were determined for four different protein kinases, namely, p42^mapk, cyclic-A kinase, MAPKK and p60^c-arc (Table 1). […] This also facilitated comparisons for the relative binding constants determined with other ATP analogs (Flockhart et al. (1984) Eur. J. Biochem., 140:289-295; Hoppe et al. (1972) Eur. J. Biochem., 80:369-372; Taylor et al. (1990) Peptides and Protein Phosphorylation (Kemp et al.) pp 2-32, CRC Press).

Row | Substance | Km [1] | Km [2]
1 | Cyclic A kinase (Bos taurus) | 7.1 ± 0.51 µM | –
2 | p60^c-src (Homo sapiens) | – | 6.2 ± 1.30 µM
